The RNAGym collection of RNA variant scans (doi:10.7554/elife.80360)

B1: HDV Ribozyme (parent)
chain: GGCCGGCAUGGUCCCAGCCUCCUCGCUGGCGCCGGCUGGGCAACAUUCCGAGGGGACCGUCCCCUCGGUAAUGGCGAAUGGGACCCA

Variants of: B1
Test: self-cleavage, relative activity (ratio to wild type); higher = more cleavage; co-transcriptional

Row | Variant | self-cleavage
1 | C75A G76C | 0.166
2 | G74A C84U | 0.446
3 | U79C A87G | 0.47
4 | U79C A87U | 0.373
5 | U79C A87C | 0.35
6 | U79C A83C | 0.374
7 | U79C A83U | 0.323
8 | G74C A77C | 0.133
9 | G80A | 0.348
10 | G80C | 0.187
11 | C75G G81C | 0.0831
12 | G74U U79C | 0.0963
13 | U79G C85G | 0.575
14 | U79G C85U | 0.705
15 | G74C U79G | 0.302
16 | G74C U79A | 0.189
17 | G74C U79C | 0.181
18 | G74U C84A | 0.475
19 | A78U C86U | 0.309
20 | A78U C86G | 0.163
21 | A78U C86A | 0.208

Row | Variant | self-cleavage
22 | G73U G82U | 0.224
23 | G73U G82C | 0.157
24 | U79G C86G | 0.712
25 | U79G C86U | 0.739
26 | A77U G82A | 0.271
27 | A77U G82U | 0.0811
28 | G76A A83C | 0.539
29 | G76A A83G | 0.992
30 | G73U A77C | 0.0898
31 | G73U A77G | 0.306
32 | G80A C84U | 0.197
33 | A77C U79C | 0.138
34 | A77C U79G | 0.151
35 | A77C U79A | 0.297
36 | G74C C86G | 0.201
37 | G74C C86A | 0.201
38 | G74C C86U | 0.189
39 | G76U A77C | 0.295
40 | G76U A78C | 0.219
41 | G76U A78U | 0.475
42 | G76U A87U | 1.04

Row | Variant | self-cleavage
43 | G74A U79G | 0.356
44 | C75A A87U | 0.111
45 | A77U A83U | 0.0898
46 | A78U A83U | 0.269
47 | A78U A83G | 0.285
48 | G76C A77C | 0.104
49 | U79A A83G | 0.375
50 | C75G C84A | 0.259
51 | C75G C84U | 0.0978
52 | G76C A83C | 0.201
53 | A78G G82C | 0.0519
54 | A78G G82U | 0.295
55 | U79C G81U | 0.225
56 | U79C G81A | 0.208
57 | U79C G81C | 0.189
58 | C75A C85A | 0.175
59 | G74U G80A | 0.0845
60 | G74U G80C | 0.164
61 | G76U C84G | 1.05
62 | G76U C84U | 1.11
63 | G76U C84A | 0.906

Row | Variant | self-cleavage
64 | A78G U79G | 0.268
65 | G80A G82A | 0.244
66 | G80A G82C | 0.0978
67 | U79A C84U | 0.314
68 | U79A C84A | 0.539
69 | G74U C75U | 0.151
70 | C75A C86G | 0.0997
71 | G76C A78G | 0.944
72 | G76C A78C | 0.192
73 | G76U G81C | 0.628
74 | G76U G81U | 0.462
75 | G74U G81A | 0.211
76 | G74C G76U | 0.175
77 | G74C G76A | 0.208
78 | G74C G76C | 0.185
79 | C75A A77C | 0.237
80 | C75A A77U | 0.119
81 | G76A G80C | 0.0719
82 | G76A G80A | 0.585
83 | G76A G80U | 0.441
